Ends that are not written are not given here. * marks the point of attachment. Biotin = O=C1N[C@H]2[C@H](CS[C@H]2CCCCC(=O)*)N1
Key:
Rat-1 cells = assay: Transient transfection cell killing assay (loss of β-galactosidase-positive blue cells); type: cell-based; conditions: Rat-1 cells co-transfected with β-galactosidase marker plasmid, 24 hours post transfection, relative to control vector
Protocol: (§1) The transient transfection assay procedure is similar to that previously described for detecting apoptosis induced by IL-1E-converting enzyme (Miura et al., Cell 75: 653-660 (1993); Kumar et al., Genes Dev. 8: 1613-1626 (1994); Wang et al., Cell 78: 739-750 (1994). One day prior to transfection, Rat-1 cells were plated in 24 well dishes at 3.5X10^4 cells/well. The following day, the cells were transfected with a marker plasmid encoding β-galactosidase (0.16 μg), in combination with an expression plasmid encoding Bak (0.42 μg), by the Lipofectamine procedure (Gibco/BRL). At 24 hours post transfection, cells were fixed and stained with X-Gal to detect J-galactosidase expression in cells that received plasmid DNA (Miura et al., supra). The number of blue cells was counted by microscopic examination and scored as either live (flat blue cells) or dead (round blue cells). The cell killing activity of Bak in this assay is manifested by a large reduction in the number of blue cells obtained relative to co-transfection of the β-gal plasmid with a control expression vector (i.e., with no bak cDNA insert).
The interpretation that loss of blue cells reflects the cell killing function of Bak is supported by a variety of observations: • 1. Rat-1 cells are rapidly killed by enforced Bak expression in stable transfection assays; • 2.
Enforced bak expression induces apoptosis in stable Rat-1 cell lines transfected with an inducible bak expression plasmid. In order to more rapidly assess the cell killing function of a large number of bak mutants, a transient transfection assay was employed. Rat-1 cells were transfected with a marker plasmid encoding β-galactosidase, in combination with an expression plasmid encoding Bak, or various control plasmids.

[1] = test system: Mouse Embryonic Fibroblasts (MEF) lacking functional p53; assay: Transient transfection cell killing assay in p53-/- fibroblasts; type: cell-based; conditions: p53-/- transformed mouse fibroblasts, co-transfection with β-gal
Protocol: (§2) Cells were fixed and stained with X-gal at 24 hours post-transfection, and the number of blue cells (β-galactosidase-positive) counted by microscopic examination. B. Mouse Embryonic Fibroblasts (MEF) lacking functional p53 (p53^−/−MEF) were co-transfected as described in(A). C. Hela cells, derived from cervical carcinoma, were co-transfected as described in (A). D. BT549 cells, derived from breast carcinoma, were co-transfected as described in (A).
as §1, with “The cell killing activity of Bak in this assay is manifested by a large reduction in the number of blue cells obtained relative to co-transfection of the β-gal plasmid with a control expression vector (i.e., with no bak cDNA insert).” left out
(§3) Bak cell killing activity was assessed in several additional cell lines. […]

[2] = test system: Hela (cervical carcinoma) cells; assay: Transient transfection cell killing assay in Hela cells; type: cell-based, human
Protocol: as §2
as §1, with “The cell killing activity of Bak in this assay is manifested by a large reduction in the number of blue cells obtained relative to co-transfection of the β-gal plasmid with a control expression vector (i.e., with no bak cDNA insert).” left out
as §3

[3] = test system: BT549 (breast carcinoma) cells; assay: Transient transfection cell killing assay in BT549 cells; type: cell-based, human
Protocol: as §2
as §1, with “The cell killing activity of Bak in this assay is manifested by a large reduction in the number of blue cells obtained relative to co-transfection of the β-gal plasmid with a control expression vector (i.e., with no bak cDNA insert).” left out
as §3

Bcl-xL [4] = molecular target: T1, Bcl-xL (Homo sapiens, UniProt Q07817); assay: Co-immunoprecipitation of epitope-tagged proteins from transfected COS cells; type: cell-based; conditions: anti-HA immunoprecipitation, western blot
T1 sequence (Q07817 whole entry): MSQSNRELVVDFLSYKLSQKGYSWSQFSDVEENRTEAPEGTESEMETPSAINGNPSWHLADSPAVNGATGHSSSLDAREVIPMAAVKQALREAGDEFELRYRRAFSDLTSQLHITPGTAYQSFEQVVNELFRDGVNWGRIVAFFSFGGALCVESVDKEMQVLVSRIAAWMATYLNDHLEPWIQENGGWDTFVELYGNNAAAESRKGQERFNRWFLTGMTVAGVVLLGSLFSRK
Protocol: B). Bak/Bcl-xL interactions detected in transfected cells. Plasmids expressing epitope-tagged forms of Bak and Bcl-xL (HA-Bak and Flag tag-Bcl-xL) were co-transfected into COS cells. HA-Bak was immunoprecipitated (anti-HA IP) from transfected cell lysates and associated Bcl-xL was detected by Western blot analysis with an anti-Flag tag antibody.
COS cells were grown in Dulbecco's modified Eagle's medium (Life Technologies, Inc.) supplemented with 10% bovine calf serum, 2% L-glutamine and 1% pen/strep (Life Technologies, Inc.). Cells were seeded at 2.0×10^5 cells/35 mm well and transfected with expression plasmids 24 hours later using Lipofectamine as described by the supplier (Life Technologies, Inc.). Bak (and Bak mutants) was expressed as a fusion protein with the HA epitope tag at its amino terminus. Bcl-xL was also expressed with an amino terminal epitope tag (Flag; Kodak). At 24 hours post-transfection, cells were washed with phosphate buffered saline and lysed in NP-40 Lysis buffer also containing 1 mM PMSF, […] pepstatin, and […] leupeptin. The lysates were incubated with anti-HA antibody (12CA5, Boehringer Mannheim) for 1 hour and with […] BSA-washed Protein A-agarose beads (50% slurry) for an additional hour. The beads were washed twice with NP-40 lysis buffer followed by two washes with NP-40 lysis buffer without NP-40. […]

Bcl-xL [5] = molecular target: T1, Bcl-xL; assay: In vitro protein binding assay, 35S labeled protein with GST-Bcl-xL on glutathione-agarose beads; design: made in house; host or cells: E. coli; conditions: in vitro translated 35S labeled protein; GST alone as specificity control
Protocol: A). Bak/Bcl-xL interactions measured in vitro. ^35S labeled in vitro translated Bak (lane 1) was mixed either with GST-Bcl-xL (lane 2) or GST (lane 3). The complexes were captured on glutathione-agarose beads, and bound ^35S labeled Bak protein was detected by electrophoresis on SDS polyacrylamide gels followed by autoradiography.
The beads were removed by centrifugation and the supernatants were incubated with GST or GST-Bcl-xL (final concentration […]) at 4° C. for 1 hour. The GST fusion proteins and any interacting proteins were recovered by incubation for 1 hour with an additional […] of GSH-agarose beads. The beads were washed twice with NP-40 lysis buffer followed by two washes with NP-40 lysis buffer without NP-40. Proteins were eluted from the beads by incubation in SDS-PAGE sample buffer at 100° C. for 5 min and loaded onto 4-20% SDS-polyacrylamide gels. Following electrophoresis, gels were fixed and incubated in a fluorography enhancing solution (Amplify; Amersham). The gels were dried and subjected to autoradiography at −70° C.

Bak = molecular target: T2, Bak (Homo sapiens, UniProt Q16611); assay: GST-PEM in vitro binding of 35S labeled Bak; conditions: GST fusion, in vitro translated 35S labeled Bak; GST alone as control
T2 construct: diminished relative to full length Bak; host or cells: coupled transcription/translation in rabbit reticulocyte lysate
T2 sequence (Q16611 1-211): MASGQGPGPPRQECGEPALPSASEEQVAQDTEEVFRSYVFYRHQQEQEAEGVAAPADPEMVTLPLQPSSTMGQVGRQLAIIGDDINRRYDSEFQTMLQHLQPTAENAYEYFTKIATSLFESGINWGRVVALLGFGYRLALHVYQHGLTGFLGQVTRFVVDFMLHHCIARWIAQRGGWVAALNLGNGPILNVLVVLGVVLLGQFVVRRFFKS
Excerpt: (§4) Complexes were captured with glutathione-agarose beads, washed, and bound proteins detected by polyacrylamide gel electrophoresis and autoradiography. […] Thus, the GD domain can mediate interaction not only with Bcl-xL but also Bak and Bax.
(§5) Complexes were captured with glutathione-agarose beads, washed, and bound proteins detected by polyacrylamide gel electrophoresis and autoradiography.

Bax = molecular target: T3, Bax (Homo sapiens, UniProt Q07812); assay: GST-PEM in vitro binding of 35S labeled Bax; conditions: GST fusion, in vitro translated 35S labeled Bax; GST alone as control
T3 construct: host or cells: coupled transcription/translation in rabbit reticulocyte lysate
T3 sequence (Q07812 whole entry, the tested form may be a part): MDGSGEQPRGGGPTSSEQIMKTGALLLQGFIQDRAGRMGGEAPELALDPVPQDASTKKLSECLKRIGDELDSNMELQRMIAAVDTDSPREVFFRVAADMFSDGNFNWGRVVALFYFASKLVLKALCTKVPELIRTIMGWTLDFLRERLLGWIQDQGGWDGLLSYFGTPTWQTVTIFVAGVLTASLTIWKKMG
Excerpt: as §4, §5

Bip1a = molecular target: T4, Bip1a (Homo sapiens, UniProt Q13323); assay: GST-PEM in vitro binding of 35S labeled Bip1a; conditions: GST fusion, in vitro translated 35S labeled Bip1a
T4 construct: host or cells: coupled transcription/translation in rabbit reticulocyte lysate
T4 sequence (Q13323 1-160): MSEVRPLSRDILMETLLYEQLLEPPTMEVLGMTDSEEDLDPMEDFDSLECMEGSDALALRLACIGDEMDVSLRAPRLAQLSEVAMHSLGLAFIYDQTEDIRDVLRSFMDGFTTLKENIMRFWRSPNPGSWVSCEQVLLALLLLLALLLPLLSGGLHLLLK
Excerpt: as §4, §5

Bcl-xL [6] = molecular target: T1, Bcl-xL; assay: GST-PEM in vitro binding of 35S labeled Bcl-xL; design: made in house; host or cells: E. coli; conditions: GST fusion, in vitro translated 35S labeled Bcl-xL; GST alone as control
Excerpt: as §4, §5

GST-Bcl-xL = molecular target: T5, GST-Bcl-xL (Homo sapiens, UniProt Q07817); assay: High through-put screening assay 1: biotinylated GD peptide on GST-Bcl-xL-coated multiwell plates, ELISA; type: binding; conditions: ELISA with streptavidin-conjugated HRP, 4° C. for 1 hour
T5 construct: made in house; host or cells: E. coli
T5 sequence (Q07817 whole entry): as the sequence (Q07817 whole entry) above
Protocol: Multiwell plates (Nunc Maxisorp) were coated with GST-Bcl-xL and blocked with 1% normal goat serum in PBS. A N-biotinylated GD peptide corresponding to Bak (71-89; […] [SEQ ID NO: 35]) was added and the plates were incubated at 4° C. for 1 hour. The plates were washed to remove unbound GD peptide and the amount of bound peptide was determined by ELISA using streptavidin-conjugated horse radish peroxidase. Coating with GST-Bcl-xL was omitted in the control wells.
According to the present example, multiwell plates coated with GST-Bcl-xL were incubated with a labeled GD domain peptide probe. […] More specifically, wells in a multiwell plate were coated without (control) or with GST-Bcl-xL and then incubated with a GD domain peptide derived from the Bcl-2 homolog Bak (amino acid residues 71-89; […] [SEQ ID NO: 35]). The peptide was labeled by biotinylation at the amino terminus to allow detection and quantitation of bound peptide using streptavidin-conjugated horse radish peroxidase (HRP) in a standard ELISA procedure. […] Compounds that antagonize GD domain-mediated interactions can be conveniently identified using this assay by adding candidate compounds to the wells during the binding step. Those compounds that disrupt the interaction of the biotinylated GD domain peptide with GST-Bcl-xL will cause a decrease in the ELISA signal.

[7] = molecular target: T6, Bcl-xL/Bak GD domain interaction (Homo sapiens, UniProt Q07817); assay: High through-put screening assay 2: GST-Bcl-xL binding to biotinylated Bak GD peptide on neutravidin wells, ELISA; conditions: peptide bound to neutravidin-coated wells, ELISA with anti-GST-HRP
T6 construct: made in house; host or cells: E. coli
T6 sequence (Q07817 whole entry, the tested form may be a part): as the sequence (Q07817 whole entry) above
Protocol: An assay was developed to screen for compounds that block the interaction between the Bcl-2 homologs, Bcl-xL and Bak. A synthetic peptide corresponding to the Bak GD binding domain ([…] [SEQ ID NO: 35]) was biotinylated and bound to wells coated with neutravidin. […] Peptides encompassing the GD domain from various Bcl-2 family members were tested for their ability to block GD domain-mediated interactions in this assay. Peptides tested: Bcl-w [SEQ ID NO: 39] […] ([…]), Bak [SEQ ID NO: 36]([…]), Bak-15 [SEQ ID NO: 37] ([…]), Bak-15L78A [SEQ ID NO: 38] ([…]), control (no peptide).
In a modification of the high through-put screening assay 1 described herein, wells are coated with an avidin derivative, to which a biotinylated peptide/protein is bound. A GST-fusion protein that can interact with the biotinylated peptide/protein is added in the presence or absence of test compounds. The plates are incubated and then unbound GST-fusion protein is removed by washing. The amount of GST-fusion protein specifically bound to the tethered peptide/protein is determined by ELISA using an anti-GST antibody conjugated to horse radish peroxidase. Compounds which block the interaction between the biotinylated peptide/protein and the GST-fusion protein cause a decrease in the ELISA signal.
In a specific example, an assay was developed to screen for compounds that block the interaction between the Bcl-2 homologs, Bcl-xL and Bak. A biotinylated Bak GD domain peptide (amino acid residues 71-89; N-biotinylated […] [SEQ ID NO: 35]) was bound to wells coated with neutravidin. […] Using this assay, peptides from Bcl-2 family members were identified which block the Bcl-xL/Bak GD domain interaction (FIG. 10).

Bak: Bcl-2 related cell death protein, HA-epitope tagged, expressed from plasmid or in vitro translated
cell killing activity (reduction in number of blue β-gal expressing cells) (Rat-1 cells): large reduction in the number of blue (β-gal expressing) cells | cell killing (number of blue cells) [1]: greatly reduced the number of blue cells | cell killing (number of blue cells) [2]: can kill human tumor cells | cell killing (number of blue cells) [3]: can kill human tumor cells | interaction with Bcl-xL in transfected cells (Bcl-xL [4]): specific Bak/Bcl-xL interaction could also be detected | binding to GST-Bcl-xL in vitro (Bcl-xL [5]): binds

GST-PEM: portion of Bak (PEM, residues 58-103) encompassing the GD domain fused to GST, bacterially expressed
interaction with Bak (homodimerization) (Bak): interact specifically | interaction with Bax (heterodimerization) (Bax): interact specifically | interaction with Bip1a (Bip1a): does not interact | interaction with Bcl-xL (Bcl-xL [6]): interact specifically

MGQVGRQLAIIGDDINRRY (Biotin-MGQVGRQLAIIGDDINRRY) [SEQ ID NO: 35, Bak GD domain peptide, amino acid residues 71-89, biotinylated at the amino terminus]
binding of biotinylated peptide to GST-Bcl-xL-coated wells (GST-Bcl-xL): specifically interacts in a concentration-dependent manner | binding of GST-Bcl-xL to the tethered biotinylated peptide [7]: bind specifically
